From PMC13499124, “Insights into how JIP3 and JIP4 adaptor proteins relieve the auto-inhibited form of the kinesin-1 motor” (The Journal of Biological Chemistry, 2026) come the findings set out here.

Positions count from the first letter of the chain named. Names may count otherwise. “And” between values parts separate entries of the source, which are not always exact repeats. Equal entries are not always repeated.

The labels stand for the following.
B1: JIP3-N-RH1-lz3 fragment (domain or fragment, mouse, UniProt Q9ESN9-1 1-100, looked up)
chain: MMEIQMDEGGGVVVYQDDYCSGSVMSERVSGLAGSIYREFERLIHCYDEEVVKELMPLVVNVLENLDSVLSENQEHEVELELLREDNEQLLTQYEREKAL
modifications: labelled with the dye NHS-NT-488 (Blue-NHS, NanoTemper) in Tables 1 and 3; labelled with NHS-fluorescein (Thermo Fisher Scientific) in Table 2
notes: JIP3, mouse, NP_038959.2, residues 1-100 (N-terminus, RH1 domain and first three heptad repeats of LZI); Unlabelled in SEC-MALS; also called JIP3-WT; wild-type JIP3-N-RH1-lz3; source: E. coli Rosetta, purified (His-Trap, gel filtration, thrombin cleavage, gel filtration); not shown: His tag, N-terminal, cleaved; thioredoxin, N-terminal, cleaved
B2: JIP4-RH1-lz3 fragment (domain or fragment, UniProt O60271 18-95, looked up)
chain: AVMSERVSGLAGSIYREFERLIGRYDEEVVKELMPLVVAVLENLDSVFAQDQEHQVELELLRDDNEQLITQYEREKAL
modifications: labelled with a fluorescent dye in the MST assay (legend of Figure 4)
notes: JIP4, RH1 domain and first three heptad repeats of LZI, without the 17-residue N-terminus
B3: JIP3-RH1-lz3 fragment (domain or fragment, mouse, UniProt Q9ESN9-1 22-100, looked up)
chain: GSVMSERVSGLAGSIYREFERLIHCYDEEVVKELMPLVVNVLENLDSVLSENQEHEVELELLREDNEQLLTQYEREKAL
modifications: labelled with the dye NHS-NT-488 (Protein Labelling Kit Blue-NHS, NanoTemper) in the MST assay
notes: JIP3, mouse, NP_038959.2, residues 22-100 (RH1 domain and first three heptad repeats of LZI); Unlabelled in SEC-MALS; source: E. coli Rosetta, purified (His-Trap, gel filtration, thrombin cleavage, gel filtration); not shown: His tag, N-terminal, cleaved; thioredoxin, N-terminal, cleaved
B4: JIP4-N-RH1-lz3 fragment (domain or fragment, UniProt O60271 1-95, looked up)
chain: MELEDGVVYQEEPGGSGAVMSERVSGLAGSIYREFERLIGRYDEEVVKELMPLVVAVLENLDSVFAQDQEHQVELELLRDDNEQLITQYEREKAL
modifications: labelled with a fluorescent dye in the MST assay (legend of Figure 4)
notes: JIP4, N-terminus (17 residues), RH1 domain and first three heptad repeats of LZI; also called wild-type JIP4-N-RH1-lz3
B5: JIP3-N-RH1-LZI fragment (domain or fragment, mouse, UniProt Q9ESN9-1 1-187, looked up)
chain: MMEIQMDEGGGVVVYQDDYCSGSVMSERVSGLAGSIYREFERLIHCYDEEVVKELMPLVVNVLENLDSVLSENQEHEVELELLREDNEQLLTQYEREKALRKQAEEKFIEFEDALEQEKKELQIQVEHYEFQTRQLELKAKNYADQISRLEERESEMKKEYNALHQRHTEMIQTYVEHIERSKMQQV
modifications: labelled with the dye NHS-NT-488 (Protein Labelling Kit Blue-NHS, NanoTemper) in the MST assay
notes: Unlabelled in SEC-MALS; also called JIP3-N-RH1-LZ1; JIP3-Nter; source: E. coli Rosetta, purified (His-Trap, gel filtration, thrombin cleavage, gel filtration); not shown: His tag, N-terminal, cleaved; thioredoxin, N-terminal, cleaved
B6: JIP3-N-RH1-lz3 E39A (domain or fragment, mouse, UniProt Q9ESN9-1 1-100, looked up)
chain: B1 chain with E39A
modifications: labelled with NHS-fluorescein (Thermo Fisher Scientific)
notes: JIP3, mouse, NP_038959.2, residues 1-100 (N-RH1-lz3); also called JIP3-E39A; source: E. coli Rosetta, purified (His-Trap, gel filtration, thrombin cleavage, gel filtration); not shown: His tag, N-terminal, cleaved; thioredoxin, N-terminal, cleaved
B7: JIP3-N-RH1-lz3 E41A (domain or fragment, mouse, UniProt Q9ESN9-1 1-100, looked up)
chain: B1 chain with E41A
modifications: labelled with NHS-fluorescein (Thermo Fisher Scientific)
notes: JIP3, mouse, NP_038959.2, residues 1-100 (N-RH1-lz3); also called JIP3-E41A; source: E. coli Rosetta, purified (His-Trap, gel filtration, thrombin cleavage, gel filtration); not shown: His tag, N-terminal, cleaved; thioredoxin, N-terminal, cleaved
B8: JIP3-N-RH1-lz3 R38A (domain or fragment, mouse, UniProt Q9ESN9-1 1-100, looked up)
chain: B1 chain with R38A
modifications: labelled with NHS-fluorescein (Thermo Fisher Scientific)
notes: JIP3, mouse, NP_038959.2, residues 1-100 (N-RH1-lz3); also called JIP3-R38A; source: E. coli Rosetta, purified (His-Trap, gel filtration, thrombin cleavage, gel filtration); not shown: His tag, N-terminal, cleaved; thioredoxin, N-terminal, cleaved
B9: JIP3-N-RH1-lz3 N65A (domain or fragment, mouse, UniProt Q9ESN9-1 1-100, looked up)
chain: B1 chain with N65A
modifications: labelled with NHS-fluorescein (Thermo Fisher Scientific)
notes: JIP3, mouse, NP_038959.2, residues 1-100 (N-RH1-lz3); also called JIP3-N65A; source: E. coli Rosetta, purified (His-Trap, gel filtration, thrombin cleavage, gel filtration); not shown: His tag, N-terminal, cleaved; thioredoxin, N-terminal, cleaved
B10: JIP3-N-RH1-lz3 E54A (domain or fragment, mouse, UniProt Q9ESN9-1 1-100, looked up)
chain: B1 chain with E54A
modifications: labelled with NHS-fluorescein (Thermo Fisher Scientific)
notes: JIP3, mouse, NP_038959.2, residues 1-100 (N-RH1-lz3); also called JIP3-E54A; source: E. coli Rosetta, purified (His-Trap, gel filtration, thrombin cleavage, gel filtration); not shown: His tag, N-terminal, cleaved; thioredoxin, N-terminal, cleaved
B11: JIP3-N-RH1-lz3 R42A (domain or fragment, mouse, UniProt Q9ESN9-1 1-100, looked up)
chain: B1 chain with R42A
modifications: labelled with NHS-fluorescein (Thermo Fisher Scientific)
notes: JIP3, mouse, NP_038959.2, residues 1-100 (N-RH1-lz3); also called JIP3-R42A; source: E. coli Rosetta, purified (His-Trap, gel filtration, thrombin cleavage, gel filtration); not shown: His tag, N-terminal, cleaved; thioredoxin, N-terminal, cleaved
B12: JIP3-N-RH1-lz3 E27A (domain or fragment, mouse, UniProt Q9ESN9-1 1-100, looked up)
chain: B1 chain with E27A
modifications: labelled with NHS-fluorescein (Thermo Fisher Scientific)
notes: JIP3, mouse, NP_038959.2, residues 1-100 (N-RH1-lz3); also called JIP3-E27A; source: E. coli Rosetta, purified (His-Trap, gel filtration, thrombin cleavage, gel filtration); not shown: His tag, N-terminal, cleaved; thioredoxin, N-terminal, cleaved
B13: JIP3-RH1-LZI fragment (domain or fragment, UniProt Q9ESN9 22-187, looked up)
chain: GSVMSERVSGLAGSIYREFERLIHCYDEEVVKELMPLVVNVLENLDSVLSENQEHEVELELLREDNEQLLTQYEREKALRKQAEEKFIEFEDALEQEKKELQIQVEHYEFQTRQLELKAKNYADQISRLEERESEMKKEYNALHQRHTEMIQTYVEHIERSKMQQV
modifications: labelled with the dye NHS-NT-488 (Protein Labelling Kit Blue-NHS, NanoTemper) in the MST assay
notes: JIP3, RH1 domain followed by the entire LZI coiled-coil, without the N-terminus; also called RH1-LZ1
B14: JIP3-N-RH1-lz3 E77Q (domain or fragment, mouse, UniProt Q9ESN9-1 1-100, looked up)
chain: B1 chain with E77Q
modifications: labelled with a fluorescent dye in the MST assay (legend of Figure 4)
notes: JIP3, mouse, NP_038959.2, residues 1-100 (N-RH1-lz3), residue changed to that of JIP4; also called JIP3-E77Q; source: E. coli Rosetta, purified (His-Trap, gel filtration, thrombin cleavage, gel filtration); not shown: His tag, N-terminal, cleaved; thioredoxin, N-terminal, cleaved
B15: JIP3-N-RH1-lz3 L70F-S71A-E72Q-N73D (domain or fragment, mouse, UniProt Q9ESN9-1 1-100, looked up)
chain: B1 chain with L70F, S71A, E72Q, N73D
modifications: labelled with a fluorescent dye in the MST assay (legend of Figure 4)
notes: JIP3, mouse, NP_038959.2, residues 1-100 (N-RH1-lz3), residues changed to those of JIP4; also called JIP3-L70F-S71A-E72Q-N73D; source: E. coli Rosetta, purified (His-Trap, gel filtration, thrombin cleavage, gel filtration); not shown: His tag, N-terminal, cleaved; thioredoxin, N-terminal, cleaved
B16: JIP3-N-RH1-lz3 N61A (domain or fragment, mouse, UniProt Q9ESN9-1 1-100, looked up)
chain: B1 chain with N61A
modifications: labelled with a fluorescent dye in the MST assay (legend of Figure 4)
notes: JIP3, mouse, NP_038959.2, residues 1-100 (N-RH1-lz3), residue changed to that of JIP4; also called JIP3-N61A; Asn61 mutant; source: E. coli Rosetta, purified (His-Trap, gel filtration, thrombin cleavage, gel filtration); not shown: His tag, N-terminal, cleaved; thioredoxin, N-terminal, cleaved
B17: JIP3-N-RH1-lz3 H45G-C46R (domain or fragment, mouse, UniProt Q9ESN9-1 1-100, looked up)
chain: B1 chain with H45G, C46R
modifications: labelled with a fluorescent dye in the MST assay (legend of Figure 4)
notes: JIP3, mouse, NP_038959.2, residues 1-100 (N-RH1-lz3), residues changed to those of JIP4; also called JIP3-H45G-C46R; source: E. coli Rosetta, purified (His-Trap, gel filtration, thrombin cleavage, gel filtration); not shown: His tag, N-terminal, cleaved; thioredoxin, N-terminal, cleaved

T1 sequence (P33176 771-914): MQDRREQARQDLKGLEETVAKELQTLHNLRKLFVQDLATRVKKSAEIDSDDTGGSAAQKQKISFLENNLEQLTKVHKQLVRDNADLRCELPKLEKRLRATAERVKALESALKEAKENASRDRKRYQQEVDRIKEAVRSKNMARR

One data set concerns the molecule itself. Briefly: SEC-MALS; JIP3/4-Nter fragments in solution, single peak; dimer; conditions not shown (Fig. S1B, Table S2).
Conditions: not given
Background: SEC sorts molecules by how far they enter the pores of the column.
The stoichiometry N is the number of molecules, sites or subunits per partner or assembly. Consider B1, for which the “stoichiometry N” value is 2.

With B2, the “stoichiometry N” value came out at 2.

Consider B3, for which the “stoichiometry N” value amounted to 2.

Turning to B4, the “stoichiometry N” value amounted to 2.

As to B5, the “stoichiometry N” value amounted to 2.

The next data set concerns the target T1, KIF5B-CC3b-CC4 fragment, 6-histidine tag removed (human, UniProt P33176 771-914).
T1 construct: kinesin-1 heavy chain KIF5B, human, NP_004512.1, residues 771-914 (last part of CC3 and CC4); source: E. coli Rosetta, purified (His-Trap, Superdex 75 gel filtration); not shown: His6, N-terminal, cleaved
Briefly: MST + other fluorescence titration; JIP3-N-RH1-lz3 wild type and alanine mutants labelled with NHS-fluorescein, constant at 20 nM; KIF5B-CC3b-CC4 without His tag titrated; 50 mM Tris pH 8.0, 200 mM NaCl, 10 mM MgCl2, 0.05% Tween 20; room temperature; Monolith NT.115; the change in overall fluorescence intensity was used for the Kd; 1:1 fit. The conditions noted are these: both partners purified.
The Kd is the free concentration of one partner at which half of the binding sites on the other are occupied at equilibrium, for simple one-to-one binding. As to B6, the Kd came to 395 ± 137 nM.

Consider B7, for which the Kd was determined as 204 ± 57.8 nM.

Take B8: the dissociation constant Kd came out at 151 ± 27.8 nM.

As for B9, the Kd worked out at 118 ± 23 nM.

Regarding B10, the Kd was determined as 226 ± 26.4 nM.

For the molecule B11, the dissociation constant Kd was found to be 90.8 ± 12.6 nM.

Turning to B12, the Kd was found to be 215 ± 57.3 nM.

As to B1, the dissociation constant Kd was 148 ± 21.4 nM.

In another data set the target is T2, KIF5B-CC3b-CC4-dt fragment (human, UniProt P33176 771-963).
T2 construct: kinesin-1 heavy chain KIF5B, human, NP_004512.1, residues 771-963 (last part of CC3, CC4 and distal tail); pET28 plasmid, NdeI/XhoI; the methods call it CC3-CC4-dt; also called KIF5B-CC3-CC4-dt; KIF5B-Tail; source: E. coli Rosetta, purified (His-Trap, Superdex 75 gel filtration); not shown: His6, N-terminal, kept
T2 sequence (P33176 771-963): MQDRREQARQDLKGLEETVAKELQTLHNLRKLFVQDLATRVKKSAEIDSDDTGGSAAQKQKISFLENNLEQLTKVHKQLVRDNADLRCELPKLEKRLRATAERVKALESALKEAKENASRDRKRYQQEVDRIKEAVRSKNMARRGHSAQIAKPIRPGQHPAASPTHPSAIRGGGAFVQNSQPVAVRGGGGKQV
Briefly: MST; labelled JIP3/4 fragment (Blue-NHS dye) constant at 20 nM, KIF5B fragment titrated 120 pM to 4 uM (up to 38.2 uM when needed); 50 mM Tris pH 8.0, 200 mM NaCl, 10 mM MgCl2, 0.05% Tween 20; room temperature; Monolith NT.115, premium capillaries, MST-on 0.5-1.5 s; 1:1 Kd fit; three replicates; the paper calls its affinities relative measurements. The conditions noted are these: both partners purified.
As for B1, the Kd was 14.7 nM and 18.3 nM.

As for B3, binding was put at a Kd of 79.3 ± 15.9 nM.

The molecule B13 registered a dissociation constant Kd of 50.5 ± 12.9 nM.

Turning to B5, the Kd came out at 18.8 ± 4 nM.

In another data set the target is T3, KIF5B-CC3b-CC4 fragment, with N-terminal 6-histidine tag (human, UniProt P33176 771-914).
T3 construct: kinesin-1 heavy chain KIF5B, human, NP_004512.1, residues 771-914 (last part of CC3 and CC4); also called CC3-CC4; source: E. coli Rosetta, purified (His-Trap, Superdex 75 gel filtration); not shown: His6, N-terminal, kept
T3 sequence (P33176 771-914): as the sequence (P33176 771-914) above
The data set is described as above. The conditions noted are these: both partners purified.
In turn, B1 came in with a Kd of 77.7 ± 12 nM.

A further data set deals with T2, KIF5B-CC3b-CC4-dt fragment. The data set is described as above. The conditions noted are these: both partners purified. This is another data set of the same source.
Regarding B14, the Kd is 46.8 ± 6.8 nM.

Molecule B15 returned a dissociation constant Kd of 47.5 ± 4.6 nM.

B16 returned a Kd of 29.9 ± 3 nM.

In turn, B17 came in with a Kd of 198 ± 27.3 nM.

With B1, the Kd turned out to be 20.6 ± 2.6 nM.

In turn, B2 yielded a Kd of 682 ± 187 nM.

For B4, binding was put at a Kd of 777 ± 146 nM.
